The target in the assay is T1, EccB5 (encoded by the Rv1782c gene), spotted on the Mtb proteome microarray (Mycobacterium tuberculosis, UniProt P9WNQ9 1-506).
T1 sequence: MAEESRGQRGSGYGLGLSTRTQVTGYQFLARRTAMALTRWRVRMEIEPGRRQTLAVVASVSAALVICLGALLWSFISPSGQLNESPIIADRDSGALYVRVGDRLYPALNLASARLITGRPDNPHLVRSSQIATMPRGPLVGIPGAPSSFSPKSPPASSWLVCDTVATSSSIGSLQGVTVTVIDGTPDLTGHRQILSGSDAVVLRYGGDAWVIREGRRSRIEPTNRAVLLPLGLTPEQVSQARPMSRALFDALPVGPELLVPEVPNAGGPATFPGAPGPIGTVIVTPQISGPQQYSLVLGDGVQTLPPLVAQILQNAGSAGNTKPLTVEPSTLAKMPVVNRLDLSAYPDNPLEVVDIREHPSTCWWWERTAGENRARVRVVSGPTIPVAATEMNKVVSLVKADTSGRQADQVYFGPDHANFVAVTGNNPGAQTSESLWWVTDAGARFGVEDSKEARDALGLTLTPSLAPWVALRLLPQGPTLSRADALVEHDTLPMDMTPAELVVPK
The experiment in a line: peptide or protein array. To be noted: both partners purified.

Results on one molecule are retold here after publication doi:10.1101/2025.05.13.653593 (bioRxiv, 2025).

B1: recombinant human GSDMD protein (natural protein, UniProt P57764 1-484, looked up)
chain: MGSAFERVVRRVVQELDHGGEFIPVTSLQSSTGFQPYCLVVRKPSSSWFWKPRYKCVNLSIKDILEPDAAEPDVQRGRSFHFYDAMDGQIQGSVELAAPGQAKIAGGAAVSDSSSTSMNVYSLSVDPNTWQTLLHERHLRQPEHKVLQQLRSRGDNVYVVTEVLQTQKEVEVTRTHKREGSGRFSLPGATCLQGEGQGHLSQKKTVTIPSGSTLAFRVAQLVIDSDLDVLLFPDKKQRTFQPPATGHKRSTSEGAWPQLPSGLSMMRCLHNFLTDGVPAEGAFTEDFQGLRAEVETISKELELLDRELCQLLLEGLEGVLRDQLALRALEEALEQGQSLGPVEPLDGPAGAVLECLVLSSGMLVPELAIPVVYLLGALTMLSETQHKLLAEALESQTLLGPLELVGSLLEQSAPWQERSTMSLPPGLLGNSWGEGAPAWVLLDECGLELGEDTPHVCWEPQAQGRMCALYASLALLSGLSQEPH
notes: also called gasdermin D; recombinant GSDMD
On to B1, for which the binding result is “binds”.
